Measurements from patent US9809835B2, “Quantitative control of sialylation” (Roche Diagnostics Operations, Inc., priority 2013, dated 2017).
Each block holds one molecule with its values, some of them ahead of it.

Key:
[1] = target: T1, Δ89 hST6Gal-I (Homo sapiens, UniProt P15907); test: Inhibition of sialidase activity of Δ89 hST6Gal-I by CTP; assay type: biochemical
T1 construct: the construct of Epo-AP-Δ89 hST6Gal-I was secreted without the N-terminal amino acids AP; Erythropoietin signal peptide (Epo) (N, cleaved yes); AP spacer (two amino acids) (N, cleaved yes); made in house; host or cells: HEK293 (transient gene expression, secreted)
T1 sequence (P15907 90-406): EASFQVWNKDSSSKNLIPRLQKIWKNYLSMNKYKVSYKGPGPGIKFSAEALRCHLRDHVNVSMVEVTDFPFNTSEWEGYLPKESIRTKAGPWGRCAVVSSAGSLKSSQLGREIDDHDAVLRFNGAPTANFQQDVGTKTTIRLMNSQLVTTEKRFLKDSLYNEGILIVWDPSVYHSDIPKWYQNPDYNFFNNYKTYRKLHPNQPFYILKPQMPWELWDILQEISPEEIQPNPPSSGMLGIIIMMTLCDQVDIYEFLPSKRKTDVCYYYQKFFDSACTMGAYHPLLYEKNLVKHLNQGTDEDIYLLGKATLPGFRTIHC
Procedure: The compound cytidine triphosphate (CTP) is a potent inhibitor of sialyltransferases (Scudder P R & Chantler E N B B A 660 (1981) 136-141). […] After 7 h of incubation the G2+2SA content was 94%. […] At different times samples were taken and the content of G2+0SA, G2+1SA and G2+2SA was determined by mass spectrometry. […] After 72 h of incubation 73% of G2+2SA were still present.

[2] = test system: MAB<IL-1R>; test: Sialylation of humanized monoclonal antibody MAB<IL-1R> using Δ89 hST6Gal-I, glycan content by mass spectrometry; assay type: biochemical
Procedure: A highly galactosylated humanized monoclonal antibody IgG4 MAB<IL-1R>(WO 2005/023872) was used in sialylation experiments. […] The samples were incubated at 37° C. for a defined time. To stop the reaction the samples were frozen at −20° C. For mass analysis 100 μl denaturing buffer (6 M guanidinium chloride) and 30 μl TCEP (0.1 mM, diluted in denaturing buffer) were added to the samples and the samples were incubated at 37° C. for 1 h. The sample were buffered in electrospray-medium (20% ACN, 1% FA) using pre-equilibrated illustra™ Nap5-Columns (GE-Healthcare). Samples were analyzed by electrospray ionization mass spectrometry and the content of G2+0SA, G2+1SA and G2+2SA N-glycans was determined. A Micromass Q-Tof Ultima and a Synapt G2 HDMS device (Waters UK) were used, the software used was MassLynx V 4.1. To determine the kinetics of the sialylation the reaction was incubated up to 72 h.

degradation of G2+2SA caused by the sialidase activity ([1]; CTP 0.67 mM, compared to inhibitor-free conditions): significantly reduced | G2+2SA still present ([1]; after 72 h of incubation, CTP added after 7 h, final concentration 0.67 mM): 73%
Molecule: Nc1ccn([C@@H]2O[C@H](COP(=O)(O)OP(=O)(O)OP(=O)(O)O)[C@@H](O)[C@H]2O)c(=O)n1 [CTP, cytidine triphosphate]

B1: Δ89 hST6Gal-I: N-terminally truncated human β-galactoside-α-2,6-sialyltransferase I, positions 1 to 89 of SEQ ID NO:1 deleted; amino acid sequence of SEQ ID NO:2 (protein)
chain: T1 sequence (P15907 90-406)
modifications: delta89 truncation variant of hST6Gal-I
content of the bi-sialylated form G2+2SA ([2]; after 2 hours of incubation, 37° C., 30 μg enzyme/300 μg MAB<IL-1R>, CMP-NANA donor): 88% | G2+2SA content ([2]; after 7 h of incubation, before addition of CTP (Example 11)): 94% | G2+1SA content ([2]; after an incubation of 48 h, 37° C., 30 μg enzyme/300 μg MAB<IL-1R>, CMP-NANA donor): 71% | dominant glycan species of MAB<IL-1R> (mass spectrum) ([2]; t=8 h): G2+2SA is the dominant form | dominant glycan species of MAB<IL-1R> (mass spectrum) ([2]; t=48 h): G2+1SA is the most abundant species
